# B1: HDV Ribozyme (parent)
# chain: GGCCGGCAUGGUCCCAGCCUCCUCGCUGGCGCCGGCUGGGCAACAUUCCGAGGGGACCGUCCCCUCGGUAAUGGCGAAUGGGACCCA
# Variants of: B1
# Assay: self-cleavage, relative activity (ratio to wild type); higher = more cleavage; co-transcriptional
row,Variant,self-cleavage
1,A51G U72G,0.615
2,A51G U79C,0.354
3,A51U A56U,1.25
4,A51U A70C,0.886
5,A51U A70G,0.972
6,A51U A70U,0.849
7,A51U A71C,0.856
8,A51U A77G,0.615
9,A51U A78U,0.282
10,A51U A87U,1.03
11,A51U C57G,1.04
12,A51U C58A,1.04
13,A51U C58G,0.997
14,A51U C63G,0.208
15,A51U C66A,0.764
16,A51U C84A,0.916
17,A51U C85A,0.956
18,A51U G54U,1.02
19,A51U G55A,1.17
20,A51U G55C,1.01
21,A51U G59A,0.889
22,A51U G59C,0.755
23,A51U G59U,1.02
24,A51U G67C,0.78

row,Variant,self-cleavage
1,A51U G74C,0.243
2,A51U G74U,0.369
3,A51U G76A,0.961
4,A51U G76C,1.23
5,A51U G76U,1.11
6,A51U G80C,0.208
7,A51U G81A,0.601
8,A51U G82A,0.543
9,A51U G82U,0.373
10,A51U U60C,0.594
11,A51U U60G,1.04
12,A51U U69C,1.26
13,A51U U72A,0.628
14,A51U U72C,0.608
15,G52A A56U,1.1
16,G52A A70G,1.02
17,G52A A77U,0.694
18,G52A A78G,0.604
19,G52A A83C,0.374
20,G52A A87G,0.86
21,G52A C57G,1.01
22,G52A C57U,1.06
23,G52A C58A,1.14
24,G52A C61G,0.897

row,Variant,self-cleavage
1,G52A C62A,0.732
2,G52A C62U,1.12
3,G52A C63A,0.774
4,G52A C64A,0.786
5,G52A C66A,1.09
6,G52A C84A,0.736
7,G52A G53U,0.773
8,G52A G54C,0.842
9,G52A G55U,0.934
10,G52A G67U,0.843
11,G52A G68C,0.436
12,G52A G68U,0.591
13,G52A G73U,0.338
14,G52A G76U,0.983
15,G52A G81C,0.259
16,G52A G82A,0.439
17,G52A G82C,0.362
18,G52A U60C,1.08
19,G52A U69G,0.955
20,G52A U79A,0.95
21,G52A U79G,0.718
22,G52C A70U,0.782
23,G52C A87G,0.985
24,G52C C58G,1.13

row,Variant,self-cleavage
1,G52C C61U,0.963
2,G52C C62A,0.878
3,G52C C66A,1.03
4,G52C C75U,0.134
5,G52C C84A,0.791
6,G52C C85U,1.09
7,G52C C86A,0.997
8,G52C C86U,1.2
9,G52C G53U,0.782
10,G52C G54C,0.564
11,G52C G67C,0.446
12,G52C G68A,0.564
13,G52C G68C,0.369
14,G52C G73A,0.627
15,G52C G80C,0.326
16,G52C G81A,0.563
17,G52C U65A,0.939
18,G52C U65C,1.18
19,G52C U69C,0.943
20,G52C U72C,0.332
21,G52U A56G,0.816
22,G52U A56U,0.787
23,G52U A70G,0.878
24,G52U A71C,0.745

row,Variant,self-cleavage
1,G52U A77C,0.54
2,G52U A78G,0.514
3,G52U A83C,0.259
4,G52U A83U,0.494
5,G52U A87C,0.95
6,G52U C57A,0.903
7,G52U C58A,0.888
8,G52U C58G,0.95
9,G52U C61G,0.927
10,G52U C62A,0.822
11,G52U C62G,0.106
12,G52U C63G,0.277
13,G52U C64G,0.902
14,G52U C64U,0.881
15,G52U C75U,0.115
16,G52U C85A,0.784
17,G52U C86G,1.01
18,G52U G53A,0.849
19,G52U G54A,0.653
20,G52U G54U,0.784
21,G52U G55C,0.961
22,G52U G59A,0.982
23,G52U G59U,0.984
24,G52U G67C,0.295

row,Variant,self-cleavage
1,G52U G68A,0.517
2,G52U G74A,0.402
3,G52U G74U,0.629
4,G52U G76A,0.936
5,G52U G81A,0.356
6,G52U G82C,0.194
7,G52U U65G,0.767
8,G52U U79C,0.59
9,G52U U79G,0.521
10,G53A A56C,0.787
11,G53A A56G,0.875
12,G53A A70C,1.06
13,G53A A70U,1.02
14,G53A A71C,0.623
15,G53A A78C,0.104
16,G53A A87C,1.1
17,G53A A87U,0.992
18,G53A C62A,1.05
19,G53A C62G,0.511
20,G53A C64G,0.769
21,G53A C66G,0.908
22,G53A C66U,1.05
23,G53A C75A,0.225
24,G53A C75U,0.256

row,Variant,self-cleavage
1,G53A C84A,0.888
2,G53A C85A,0.933
3,G53A G54A,0.896
4,G53A G59A,0.851
5,G53A G67A,1.02
6,G53A G67C,1.04
7,G53A G68A,0.743
8,G53A G68C,0.604
9,G53A G68U,0.807
10,G53A G73A,0.44
11,G53A G73C,0.265
12,G53A G73U,0.304
13,G53A G74A,0.554
14,G53A G76C,1.08
15,G53A G80A,0.218
16,G53A G81C,0.266
17,G53A G82A,0.466
18,G53A U65A,0.884
19,G53A U72A,0.642
20,G53A U79A,0.814
21,G53C A56G,0.962
22,G53C A71U,1.1
23,G53C A77U,0.639
